Assay results from article PMC2346476.

Target: recombinant His6-tagged Drosophila PP1α87B (pET28a) (Drosophila) (UniProt P12982)
Sequence of UniProt P12982 (P12982 whole entry): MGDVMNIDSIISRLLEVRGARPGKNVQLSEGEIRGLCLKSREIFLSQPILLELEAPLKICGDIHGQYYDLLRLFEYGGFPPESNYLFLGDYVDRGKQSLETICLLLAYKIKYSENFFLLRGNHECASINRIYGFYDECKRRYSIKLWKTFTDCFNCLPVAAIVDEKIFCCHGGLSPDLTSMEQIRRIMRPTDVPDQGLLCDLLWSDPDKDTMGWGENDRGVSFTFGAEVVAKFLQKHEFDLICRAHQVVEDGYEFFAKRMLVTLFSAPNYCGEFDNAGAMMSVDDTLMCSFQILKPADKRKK

B1: recombinant His6-tagged Drosophila Uri (pET-28m), bacterially expressed (natural protein)
chain: MDRREDALLQALQTNASETERWEAFKRDNESTIRNLDKFAKNLSVEVMVPIGRKALMPGELIHTNELLVGHYEGYFSACSSHKAKEICQYRLKLAEEQLKKLAVENDLWQKKLHTPFAEGAVPSGDQVEIVEDFNEESHNKWLAEHRKRMRQQKQKERLEREAEPVKKDNEVLRKLEEREMMEELGLDPDNIDEDQLHDMLNQEPLKSTNESSPKSLTQEEEDELWKKLEAEEQNEADELSSEAEESLKTTDNLVRQLMSGETETPSSKKRTAGTNRNVEIQDPISEDDGDDDDEGDQEEEVRTIREQMSLLPNEDREPFLRAQLHVLKAKMRKIQKVNFISDELIHLMNVVVMLEDDLQDLVFEQELEASEEEEEVVENNHLPDEPSKELSTVSESSTNKRRISFALDDEKLEFRREETVAEMLPNAKKNSRDIIKLNAPLKPAGDPQPASIKTKRQTTQDILQKVERNIEFVKENQSVQDFDLLNRIMEESTGLINTLHISFTHSGAIPSPSSDQSDGIPGKPSDFYVRYEKDRARPNDSFPIYVNGFEGEEHVKVPIMSEAARGSAYEDPRSQFSKPNSSEICFTHSGSITPTSNDQSDDIPGNPFDFYEKYEKDRAKFSKSNSSEGDATDPESATKSILRNKSAVDLEPHNVNQQPKKGRKVRNQKKKERTLDDDLRDMSAYQKVMHDLVEKEPTAPEPLPPGKFIDSHAPKKRVSRFKEQRALNKT
- inhibition of the myelin basic protein phosphatase activity of recombinant PP1α87B by Uri; IC50 of Uri relative to its IC50 against PP1β9C: 25 fold
